# Substrate: CC(O)C(=O)O
# Experiment: cells, lysate or membranes
# Settings: labelled compound, KH2PO4 pH 5.0, room temperature, 10 s uptake, strain printed GLS in table, GS in text and methods, host background uptake not subtracted
protein,measurement,value
PAS (putative lactate transporter of P. pastoris) (Komagataella phaffii GS115) (protein) MSHSIHSAAHKSVMTDIEKQHDRIHPHDHPVTPLEKPDLSAKSIKHYFATRLSTLVPKAEDFKDKRYIFNPFMVLRELTPKNWNFFMCGFAAWTWDAVDFFSVSLNVTNIAKDLNVTTKDVTWGLTLVLMLRSVGAISFGLWADRKGRKWPFIFNMILLIVLQIGLGFVNTYKQFLGVRAVFGIAMGAVFGNASSLALDDCPPRAKGIVSGIFQQGYAFGYLLVVVFQRAITDNASKSWRALFWFSAGPPVLIILWRLVLPETDAFIAQQNLRMETSDGQTASQQFVKQGKDALRVYWLMLIYMIIMMAAFNFSSHSSQDLYPTLLTVQYEFGKDRSTVTNVVANLGAIVGGIFWGHMSNFIGRRLAVLLCCIVGGAFIYPWAFINGSGINAGAFFLQFAVQGGWGVCPVHLAEMSPPHFRAFVTGTTYQLGNLASSGSSTILADIGERFPIYDENGVRKEGVYDYAKVMAIFMGAVFAFLFIVMLLGPERRGASNLDDLQDYIDDWEQKDLDNKKGIETEFIEDVQLMEAVSNEDLSEKGNEKVEAFEGNK,Km,157.40 ± 25.46 µM
same,Vmax,452 µmol/min/mg

# Source: article PMC5025603
